Assay results taken from patent publication US6942981.
Ends that are not written are not given here. * marks the point of attachment. Biotin = O=C1N[C@H]2[C@H](CS[C@H]2CCCCC(=O)*)N1

How the values were obtained:
Assay in all cases: A/G assays
[1] = target: T1, GST-SYN1a (alpha1-syntrophin) PDZ domain fusion protein (Homo sapiens (Human), UniProt Q13424 84-179)
T1 construct: also called SYN 1 α; not shown: glutathione S-transferase (GST) encoded by pGEX-3X
T1 sequence: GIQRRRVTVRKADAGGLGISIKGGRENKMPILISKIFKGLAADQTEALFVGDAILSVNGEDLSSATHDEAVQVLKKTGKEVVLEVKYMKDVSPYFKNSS

[2] = target: T2, GST-NeDLG PDZ domains 1-2 fusion protein (Mus musculus (Mouse), UniProt P70175 147-332)
T2 construct: also called NeDLG1; not shown: glutathione S-transferase (GST) encoded by pGEX-3X
T2 chain: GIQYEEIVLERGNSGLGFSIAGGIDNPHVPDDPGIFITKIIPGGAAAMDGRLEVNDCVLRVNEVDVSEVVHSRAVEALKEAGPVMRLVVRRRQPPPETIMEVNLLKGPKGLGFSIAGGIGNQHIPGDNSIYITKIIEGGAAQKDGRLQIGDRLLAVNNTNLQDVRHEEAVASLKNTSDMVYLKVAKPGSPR

[3] = target: T3, GST-MINT3 PDZ domain fusion protein (human)
T3 construct: also called human MINT3; not shown: glutathione S-transferase (GST) encoded by pGEX-3X
T3 chain: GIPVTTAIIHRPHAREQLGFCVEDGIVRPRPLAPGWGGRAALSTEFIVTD

[4] = target: T4, GST-DVL1 PDZ domain fusion protein (human)
T4 construct: also called human dishevelled segment polarity protein homolog; not shown: glutathione S-transferase (GST) encoded by pGEX-3X
T4 chain: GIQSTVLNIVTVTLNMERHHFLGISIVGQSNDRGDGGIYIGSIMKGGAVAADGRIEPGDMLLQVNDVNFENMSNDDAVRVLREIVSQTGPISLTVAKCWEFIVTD

[5] = target: T5, GST-LIMK2 PDZ domain fusion protein (human, UniProt P53671 147-237)
T5 construct: also called human LIM domain kinase 2; not shown: glutathione S-transferase (GST) encoded by pGEX-3X
T5 sequence: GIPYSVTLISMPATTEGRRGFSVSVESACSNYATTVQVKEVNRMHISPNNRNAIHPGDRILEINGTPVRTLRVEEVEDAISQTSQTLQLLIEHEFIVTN

[6] = target: T6, GST-MPP2 PDZ domain fusion protein
T6 construct: also called maguk p55 subfamily member 2 (DLG2); MMP2; not shown: glutathione S-transferase (GST) encoded by pGEX-3X
T6 chain: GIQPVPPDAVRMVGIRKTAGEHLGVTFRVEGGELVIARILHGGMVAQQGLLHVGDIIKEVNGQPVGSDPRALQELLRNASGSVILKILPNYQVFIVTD

[7] = target: T7, GST-TAX2 PDZ domain fusion protein (human, UniProt O14908 129-216)
T7 construct: not shown: glutathione S-transferase (GST) encoded by pGEX-3X
T7 chain: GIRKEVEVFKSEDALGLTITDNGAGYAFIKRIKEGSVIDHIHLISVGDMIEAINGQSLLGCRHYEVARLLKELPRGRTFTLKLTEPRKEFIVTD

Measured: binding result

B1: CD97 (CD55L) C-terminal peptide AA14L (peptide)
peptide: Biotin-TSGTGHNQTRALRASESGI
no binding: all assays above

B2: CD5 C-terminal peptide AA49L (peptide)
peptide: Biotin-SMQPDNSSDSDYDLHGAQRL
no binding: all assays above

B3: BLR-1 C-terminal peptide AA45L (peptide)
peptide: Biotin-PSWRRSSLSESENATSLTTF
no binding: all assays above

B4: CC CKR-3 C-terminal peptide AA43L (peptide)
peptide: Biotin-LERTSSVSPSTAEPELSIVF
no binding: all assays above

B5: CD49E (alpha-4) C-terminal peptide AA11L (peptide)
peptide: Biotin-PYGTAMEKAQLKPPATSDA
no binding: all assays above

B6: CLASP-4 C-terminal peptide AA3L-V (peptide)
peptide: Biotin-CAISGTSSDRGYGSPRYAEV
not listed: [2]
no binding: all other assays above

B7: CDW125 (IL5R) C-terminal peptide AA28L (peptide)
peptide: Biotin-EVICYIEKPGVETLEDSVF
no binding: all assays above

B8: CD3n C-terminal peptide AA4L (peptide)
peptide: Biotin-SVFSIPTLWSPWPPSSSSQL
notes: also called CD3-η
no binding: all assays above
